Assay results from patent US20230331799A1 (XILIO DEVELOPMENT, published 2023).

Tests used:
AK564 [1] = target: T1, AK564 (human, UniProt Q13261 31-96); assay: SPR (Biacore 8K), multi-cycle kinetics, human CD122 immobilised by amine coupling, construct as analyte, 25 C
T1 construct: also called IL-15 masked non-cleavable AK564

AK564 [2] = target: T1, AK564; assay: SPR (Biacore 8K), multi-cycle kinetics, human CD215 immobilised by amine coupling, construct as analyte, 25 C

B1: Recombinant Human IL-2 R beta Protein (CD122) (receptor, UniProt P14784 27-239, looked up)
chain: AVNGTSQFTCFYNSRANISCVWSQDGALQDTSCQVHAWPDRRRWNQTCELLPVSQASWACNLILGAPDSQKLTTVDIVTLRVLCREGVRWRVMAIQDFKPFENLRLMAPISLQVVHVETHRCNISWEISQASHYFERHLEFEARTLSPGHTWEEAPLLTLKQKQEWICLETLTPDTQYEFQVRVKPLQGEFTTWSPWSQPLAFRTKPAALGKD
notes: also called human CD122
B1: no binding (tested: Top 500 nM, 2x dilution) (AK564 [1]).

B2: Recombinant Human IL-15R alpha Fc chimera Protein (CD215) (Fc fusion, UniProt Q13261 31-205, looked up)
chain: ITCPPPMSVEHADIWVKSYSLYSRERYICNSGFKRKAGTSSLTECVLNKATNVAHWTTPSLKCIRDPALVHQRPAPPSTVTTAGVTPQPESLSPSGKEPAASSPSSNNTAATTAAIVPGSQLMPSKSPSTGTTEISSHESSHGTPSQTTAKNWELTASASHQPPGVYPQGHSDTT
notes: also called human CD215; Fc part of the bought chimera not given
B2: no binding (tested: Top 40 nM, 2x dilution) (AK564 [2]).
